Experimental data taken from paper PMC6018217, “3-Hydroxyphthalic Anhydride- Modified Rabbit Anti-PAP IgG as a Potential Bifunctional HIV-1 Entry Inhibitor” (Frontiers in Microbiology, 2018).

Molecular target: the molecule itself
Experiment: amyloid fibril formation (ThT fluorescence, Congo red, TEM, CD); PAP248-286 alone at 3 mg/ml in PBS, agitated at 1,400 rpm, 37°C, 0-48 h; fibrils read by ThT fluorescence, Congo red staining, negative-stain TEM and CD

B1: Peptide PAP248-286 (amino acid residues 248-286 of prostatic acidic phosphatase) (peptide, UniProt P15309 248-286, looked up)
peptide: GIHKQKEKSRLQGGVLVNEILNHMKRATQIPSYKKLIMY
notes: Forms SEVI amyloid fibrils when agitated at 3 mg/ml in PBS, 37°C; also called SEVI; SEVI fibrils; source: synthetic peptide (Fmoc solid phase, GL Biochem, HPLC purified)
B1: binds.
